Measurements published in publication PMC11098746 (2024).

Assays:
Experiment in all cases: AVEXIS screen signal:noise (double-corrected)
[1] = molecular target: T1, ADP106
T1 chain: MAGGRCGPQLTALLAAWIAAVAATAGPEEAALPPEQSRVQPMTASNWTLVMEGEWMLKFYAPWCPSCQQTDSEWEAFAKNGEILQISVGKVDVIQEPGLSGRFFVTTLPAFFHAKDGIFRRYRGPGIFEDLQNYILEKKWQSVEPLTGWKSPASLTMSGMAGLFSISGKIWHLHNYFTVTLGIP

[2] = molecular target: T2, ADP279
T2 chain: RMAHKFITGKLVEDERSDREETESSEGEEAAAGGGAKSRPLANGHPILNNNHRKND

[3] = molecular target: T3, ADP261
T3 chain: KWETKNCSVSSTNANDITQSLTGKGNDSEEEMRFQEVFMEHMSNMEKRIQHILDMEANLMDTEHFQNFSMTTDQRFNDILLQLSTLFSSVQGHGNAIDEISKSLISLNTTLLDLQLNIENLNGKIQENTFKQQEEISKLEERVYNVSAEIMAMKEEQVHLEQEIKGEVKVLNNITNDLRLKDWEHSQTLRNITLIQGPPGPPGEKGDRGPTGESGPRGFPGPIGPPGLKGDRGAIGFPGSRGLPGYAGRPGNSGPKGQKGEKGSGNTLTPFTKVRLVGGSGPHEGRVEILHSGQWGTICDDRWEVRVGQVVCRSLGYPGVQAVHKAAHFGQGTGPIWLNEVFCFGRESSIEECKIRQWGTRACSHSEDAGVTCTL

[4] = molecular target: T4, ADP377
T4 chain: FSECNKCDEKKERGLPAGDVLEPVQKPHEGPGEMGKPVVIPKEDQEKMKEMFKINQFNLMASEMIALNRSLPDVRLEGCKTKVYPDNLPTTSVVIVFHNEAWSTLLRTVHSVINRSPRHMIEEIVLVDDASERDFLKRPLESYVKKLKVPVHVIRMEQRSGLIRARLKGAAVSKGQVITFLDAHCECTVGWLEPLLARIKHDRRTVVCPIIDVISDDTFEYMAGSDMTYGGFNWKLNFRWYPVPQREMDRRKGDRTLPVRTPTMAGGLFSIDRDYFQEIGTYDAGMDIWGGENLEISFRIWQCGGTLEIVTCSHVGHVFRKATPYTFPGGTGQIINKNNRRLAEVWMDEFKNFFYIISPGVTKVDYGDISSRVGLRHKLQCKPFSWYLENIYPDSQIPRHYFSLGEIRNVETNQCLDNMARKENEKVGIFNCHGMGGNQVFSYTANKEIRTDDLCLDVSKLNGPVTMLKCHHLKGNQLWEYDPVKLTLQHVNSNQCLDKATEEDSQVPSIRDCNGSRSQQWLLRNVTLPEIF

[5] = molecular target: T5, ADP375
T5 chain: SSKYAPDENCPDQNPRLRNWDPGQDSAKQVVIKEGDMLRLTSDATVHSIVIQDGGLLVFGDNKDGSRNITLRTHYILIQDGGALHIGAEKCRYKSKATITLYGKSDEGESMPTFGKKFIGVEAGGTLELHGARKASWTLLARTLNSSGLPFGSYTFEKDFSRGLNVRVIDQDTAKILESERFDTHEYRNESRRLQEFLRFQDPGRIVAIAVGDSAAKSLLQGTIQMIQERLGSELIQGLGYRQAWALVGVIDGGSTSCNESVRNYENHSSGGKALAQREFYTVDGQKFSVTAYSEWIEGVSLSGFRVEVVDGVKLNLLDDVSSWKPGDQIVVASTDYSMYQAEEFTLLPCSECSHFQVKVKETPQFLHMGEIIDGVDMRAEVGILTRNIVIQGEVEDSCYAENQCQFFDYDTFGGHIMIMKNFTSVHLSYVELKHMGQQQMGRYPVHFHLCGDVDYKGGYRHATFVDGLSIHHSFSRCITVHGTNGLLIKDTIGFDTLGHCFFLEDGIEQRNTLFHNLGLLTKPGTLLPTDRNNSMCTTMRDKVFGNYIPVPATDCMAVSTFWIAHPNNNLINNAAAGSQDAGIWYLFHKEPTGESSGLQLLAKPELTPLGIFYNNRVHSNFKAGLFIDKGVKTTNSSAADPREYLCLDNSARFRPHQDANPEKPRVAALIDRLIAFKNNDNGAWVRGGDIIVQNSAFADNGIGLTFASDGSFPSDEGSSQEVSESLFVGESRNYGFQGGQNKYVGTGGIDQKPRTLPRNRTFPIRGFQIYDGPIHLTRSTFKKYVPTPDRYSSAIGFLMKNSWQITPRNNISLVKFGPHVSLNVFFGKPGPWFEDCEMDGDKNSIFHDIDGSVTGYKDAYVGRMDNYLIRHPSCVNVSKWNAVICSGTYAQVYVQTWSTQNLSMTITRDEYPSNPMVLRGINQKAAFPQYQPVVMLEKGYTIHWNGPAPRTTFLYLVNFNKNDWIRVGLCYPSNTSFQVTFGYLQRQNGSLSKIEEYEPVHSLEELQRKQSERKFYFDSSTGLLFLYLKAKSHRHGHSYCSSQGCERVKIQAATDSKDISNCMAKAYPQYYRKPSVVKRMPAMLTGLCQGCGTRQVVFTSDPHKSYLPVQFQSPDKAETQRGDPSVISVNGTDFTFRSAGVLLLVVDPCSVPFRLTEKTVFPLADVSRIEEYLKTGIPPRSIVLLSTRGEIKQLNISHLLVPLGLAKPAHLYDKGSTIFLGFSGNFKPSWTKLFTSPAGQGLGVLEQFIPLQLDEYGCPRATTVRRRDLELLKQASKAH

[6] = molecular target: T6, ADP264
T6 chain: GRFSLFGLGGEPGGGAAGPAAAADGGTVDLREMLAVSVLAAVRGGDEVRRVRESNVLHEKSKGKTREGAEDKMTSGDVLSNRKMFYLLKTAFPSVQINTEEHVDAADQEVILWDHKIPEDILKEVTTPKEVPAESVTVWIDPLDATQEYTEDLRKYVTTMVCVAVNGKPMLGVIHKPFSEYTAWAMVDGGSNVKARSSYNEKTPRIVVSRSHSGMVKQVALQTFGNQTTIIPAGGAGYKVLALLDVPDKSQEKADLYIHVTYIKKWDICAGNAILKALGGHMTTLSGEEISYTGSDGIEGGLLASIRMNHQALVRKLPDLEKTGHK

B1: ADP237 (protein)
chain: TKKKVSVSEINFDSAVDDVQWCGNNHMTVLVKTVKGRLYRSSDGGKIWTNIAGNLADKENNKADPSSNHMNEMTTVDLIMVNSVNKNIVLIIGNQKNHYISEDSGETFRLLNYQNKINFWQFHSTKTHWALVSSWTEACYSNDDNSGECMQTLSLTKDLGRTFQLIDIYVVQFNWGDKESHLEDTIYYTRHKNRNGHQQRFSGWSKDVDFVATHNFGKSVDVLVKQGNKFLISNGYIFVAKLNDVIKQTVNMMVSTDGGKTFNKANLPENIHEKSYTVLDTSEGSIMLHVNHGTSSEKINTGNVYISDASGLNYALSLPNNIRTSSGECEFDRVLSLDGVYIANFLDVNNEIKDEDLRFQNFKSAIEEDIAPFETNTEKRKKQYNKGKNEDAVRTVISFNKGGEWSYLKAPKVDSRGNKYECGDNCYLHLHGITNYHQYAPFYSIENAVGIIMGTGNVGSHLRYESDEVNTFLSRDGGVTWIEAHKGPYIYEYGDYGGLIVMADDLRKTNQIVFSWNEGQSWFDFELGQFSIDVDNIVAEPNSASVEFLVYGTRNDVGVLYHLDFNALGQPLCKGLWAADSVSSDYETWSPTSGNFNDKCILGRKITYTRRKQTSECFNGKDLKRTVDKKPCECTPEDYECETGFTRKIGSYECKPNDPTLTIEGCTSSSYFYANAYRKVPGDICVNGWVPEKVPVPCPSYAPFNKAAK
modifications: bait human Fc-tagged dimer; N-glycosylation sequons mutated in Plasmodium baits
Work on B1 yielded a binding score [1] of 10.3, a binding score [2] of 12.8 and a binding score [3] of 19.5. For the same binder, the binding score [4] was 11.5, the binding score [5] was 24.4 and the binding score [6] was 9.43.
